Results taken from publication PMC6447619, “New type of interaction between the SARAH domain of the tumour suppressor RASSF1A and its mitotic kinase Aurora A” (Scientific Reports, 2019).

Assays:
[1] = molecular target: the molecule itself; assay: SEC; analytical gel filtration on Superose 6 10/300 GL, 100 μl of dilution series injected (RBD 1.5-17.5 μM, ∆N 4.5-35 μM, SARAH 1.5-80 μM), 25 mM HEPES pH 7.4, 300 mM NaCl; MBP-tagged constructs; dimer to monomers
[2] = molecular target: T1, Aurora A kinase domain (residues 107–403) (human, UniProt O14965 107-403); assay: SPR; Biacore X; Aurora A kinase domain immobilised on a CM5 chip, RASSF1A variants as analytes; HBS-EP (10 mM HEPES pH 7.4, 150 mM NaCl, 3 mM EDTA, 0.005% Tween-20), 25 °C; equilibria not reached because of irreversible aggregation on the surface; conditions: both partners purified
T1 construct: Aurora A kinase, human, kinase domain only, residues 107-403
T1 sequence (looked up): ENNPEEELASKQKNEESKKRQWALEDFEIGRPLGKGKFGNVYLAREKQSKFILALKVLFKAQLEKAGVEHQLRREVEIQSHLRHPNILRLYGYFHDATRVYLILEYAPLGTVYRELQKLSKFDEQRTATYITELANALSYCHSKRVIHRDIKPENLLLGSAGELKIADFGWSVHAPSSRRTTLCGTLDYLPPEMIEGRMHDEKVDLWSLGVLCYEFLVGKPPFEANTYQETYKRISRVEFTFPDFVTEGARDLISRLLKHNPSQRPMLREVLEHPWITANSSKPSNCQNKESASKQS

[3] = molecular target: T2, Aurora A kinase domain (residues 107–403) (human) (UniProt O14965)
T2 sequence: T1 sequence (looked up)

B1: SARAH domain of RASSF1A (residues 291–340) (domain or fragment, UniProt Q9NS23-2 291-340, looked up)
chain: VNWDAFSMPELHNFLRILQREEEEHLRQILQKYSYCRQKIQEALHACPLG
notes: Ras-association domain family 1 isoform A (RASSF1A), residues 291-340 (SARAH domain); numbers count on: isoform A; 51 kDa with the MBP tag; Monomer-dimer equilibrium by SEC; also called isolated SARAH domain; SARAH domain construct; not shown: MBP, N-terminal, kept
stoichiometry N [1]: 2
binding result [2]: binds

B2: RASSF1A ∆N-∆loop (residues 121–340 lacking the loop 177–197) (domain or fragment)
chain: EPVEWETPDLSQAEIEQKIKEYNAQINSNLFMSLNKDGSYTGFIKVQLKLVRPVSVVRRRTSFYLPKDAVKHLHVLSRTRAREVIEALLRKFLVVDDPRKFALFERAERHGQVYLRKLLDDEQPLRLRLLAGPSDKALSFVLKENDSGEVNWDAFSMPELHNFLRILQREEEEHLRQILQKYSYCRQKIQEALHACPLG
Km of phosphorylation of ∆N-∆loop by Aurora A kinase domain (40 nM), 32P incorporation [3]: 10 µM

B3: RASSF1A ∆N (residues 121–340) (domain or fragment, UniProt Q9NS23-2 121-340, looked up)
chain: EPVEWETPDLSQAEIEQKIKEYNAQINSNLFMSLNKDGSYTGFIKVQLKLVRPVSVPSSKKPPSLQDARRGPGRGTSVRRRTSFYLPKDAVKHLHVLSRTRAREVIEALLRKFLVVDDPRKFALFERAERHGQVYLRKLLDDEQPLRLRLLAGPSDKALSFVLKENDSGEVNWDAFSMPELHNFLRILQREEEEHLRQILQKYSYCRQKIQEALHACPLG
notes: Ras-association domain family 1 isoform A (RASSF1A), 340 residues, residues 121-340 (RBD plus SARAH domain); numbers count on: isoform A; 69 kDa with the MBP tag; Monomer-dimer equilibrium by SEC; also called ΔN; ΔN fragment; not shown: MBP, N-terminal, kept
stoichiometry N [1]: 2
